One assay has as its target T1, MASP-1 CCP1-CCP2-SP (Homo sapiens, UniProt P48740).
T1 construct: made in house
T1 sequence (P48740 298-699): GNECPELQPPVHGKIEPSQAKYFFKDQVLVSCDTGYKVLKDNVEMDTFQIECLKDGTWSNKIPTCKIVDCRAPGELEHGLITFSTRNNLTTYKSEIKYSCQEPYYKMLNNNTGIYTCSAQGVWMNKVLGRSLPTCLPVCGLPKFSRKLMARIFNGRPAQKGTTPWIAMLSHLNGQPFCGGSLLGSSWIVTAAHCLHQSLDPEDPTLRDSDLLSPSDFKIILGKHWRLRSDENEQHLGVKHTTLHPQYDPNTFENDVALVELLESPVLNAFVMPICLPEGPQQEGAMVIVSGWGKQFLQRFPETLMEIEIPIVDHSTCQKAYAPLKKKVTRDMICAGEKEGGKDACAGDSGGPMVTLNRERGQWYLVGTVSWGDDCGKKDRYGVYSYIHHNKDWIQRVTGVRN
Put plainly: Inhibition of the enzymatic activities of the MASP-1 fragment by C1-inhibitor and alpha-2-macroglobulin. The format is biochemical. Here is the method: (§1) Reactivity toward C1-inhibitor and alpha-2-macroglobulin—Inhibition of the enzymatic activities of the MASP fragments by C1-inhibitor and alpha-2-macroglobulin were tested as follows. MASP-1 and MASP-2 fragments at concentrations selected in the C2, C3, C3(NH3) and C4 cleavage tests were incubated at 37° C. with excess molar ratios of either C1-inhibitor, alpha-2-macroglobulin, or buffer in 20 mM HEPES, 140 mM NaCl, pH 7.4 for 40 minutes. Complement substrates C2, C3, C3(NH3) or C4 were added at typical concentrations of 0.5-1 μM and the samples were further incubated for 20 minutes. The cleaved and uncleaved chains were visualized by reducing SDS-PAGE and the degree of inhibition was compared.

In a further assay the target is T2, MASP-2 fragments (Homo sapiens, UniProt O00187).
T2 construct: T7-Tag fragment Ala-Ser-Met (N, cleaved yes); made in house
Put plainly: Inhibition of the enzymatic activities of the MASP-2 fragments by C1-inhibitor and alpha-2-macroglobulin. Conditions: for molar excess of inhibitor that abolishes all cleavages by the MASP-2 fragments: preincubation, C2, C3, C3(NH3), C4 substrates. The format is biochemical. Here is the method: as §1

Where [1] appears, read: marginal molar excess over the enzyme.

T2 sequence (O00187 445-686 limits assumed): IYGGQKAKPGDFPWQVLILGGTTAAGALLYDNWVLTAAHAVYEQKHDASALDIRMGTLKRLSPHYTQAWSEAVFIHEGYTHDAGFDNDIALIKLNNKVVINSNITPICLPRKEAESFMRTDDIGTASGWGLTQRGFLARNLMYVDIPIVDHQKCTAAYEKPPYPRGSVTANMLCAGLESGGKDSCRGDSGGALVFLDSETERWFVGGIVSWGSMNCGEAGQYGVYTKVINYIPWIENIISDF
T2 sequence (O00187 291-444 partner limits assumed): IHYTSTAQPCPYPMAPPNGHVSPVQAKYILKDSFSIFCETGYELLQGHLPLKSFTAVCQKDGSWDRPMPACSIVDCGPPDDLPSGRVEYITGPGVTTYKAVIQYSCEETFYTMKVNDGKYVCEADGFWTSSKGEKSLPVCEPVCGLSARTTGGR

Consider “C1-inhibitor: serpin C1-inhibitor purified from human serum”, for which the “effect on proteolytic activity of MASP-1 on all substrates, in words” value in the assay with MASP-1 CCP1-CCP2-SP (setting [1]) was “completely abolished”. Further, the “effect on proteolytic activity of MASP-2 on all substrates, in words” value with MASP-2 fragments (setting [1]) is given as “completely abolished”. Further, the “molar excess of inhibitor that abolishes all cleavages by the MASP-2 fragments” value with MASP-2 fragments was 1-3 fold.
For “alpha-2-macroglobulin: human alpha-2-macroglobulin isolated from plasma”, the “molar excess that completely blocks cleavage of C2 by the MASP-1 CCP1-CCP2-SP fragment” value with MASP-1 CCP1-CCP2-SP (C2 cleavage) is listed as 1-3 fold. Besides, the “molar excess over MASP-1 CCP1-CCP2-SP that blocks C3 cleavages” value in the assay with MASP-1 CCP1-CCP2-SP (C3 cleavage) is listed as 1-3 fold. Further, in the assay with MASP-2 fragments (C2 and C4 cleavage), the “molar excess over the MASP-2 fragments capable of significantly hindering C2 and C4 cleavage” value amounted to 40 fold. Also, the “molar excess over MASP-2 CCP1-CCP2-SP that blocks C3 cleavages” value with MASP-2 fragments (C3 cleavage) is on record as 1-3 fold. Further, the “molar excess of inhibitor that abolishes all cleavages by the MASP-2 fragments” value in the assay with MASP-2 fragments came to 40 fold.

Source of the values: patent US8173397B2, “Folded recombinant catalytic fragments of multidomain serine proteases, preparation and uses thereof” (TargetEx Kft., priority 2002, dated 2012).
